Test results reported in US20210122797A1.

Molecular target: GLP-1 receptor (on pancreatic islets of C57BL/6J mice) (mouse (islets from C57BL/6J mice)) (UniProt O35659)

Substance: glucagon like peptide-1 (GLP-1) (ligand)
- Insulin Secretion ng/islet/hour (glucose-stimulated insulin secretion, 16.7 mM glucose + 10 nM peptide) (ng/islet/hour): 5.4
